Test results: paper PMC2756588

What was measured:
Assay in all cases: SPOT array
GST = details: median of control spots 978
Lsb3, P43603 = target: T1, Lsb3, P43603; details: median of control spots 406
T1 sequence (P43603 385-451, looked up): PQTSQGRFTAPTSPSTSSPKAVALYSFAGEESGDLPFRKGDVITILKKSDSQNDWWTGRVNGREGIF

Lsb1, P53281 = target: T2, Lsb1, P53281; details: median of control spots 388
T2 sequence (P53281 45-122, looked up): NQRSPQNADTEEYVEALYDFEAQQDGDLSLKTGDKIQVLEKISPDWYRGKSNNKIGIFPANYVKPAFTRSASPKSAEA

Bem1-2, P29366 = details: median of control spots 4347
Myo3, P36006 = details: median of control spots 468
Cyk3, Q07533 = target: T3, Cyk3, Q07533; details: median of control spots 1451
T3 sequence (Q07533 1-83, looked up): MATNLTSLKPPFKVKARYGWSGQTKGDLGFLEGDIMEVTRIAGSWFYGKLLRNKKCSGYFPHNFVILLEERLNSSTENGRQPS

Cdc25, P04821 = target: T4, Cdc25, P04821; details: median of control spots 969
T4 sequence (P04821 50-136, looked up): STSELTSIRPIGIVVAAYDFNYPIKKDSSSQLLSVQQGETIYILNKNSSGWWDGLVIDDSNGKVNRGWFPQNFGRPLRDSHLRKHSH

Sla1-2, P32790 = target: T5, Sla1-2, P32790; details: median of control spots 712
T5 sequence (P32790 60-140, looked up): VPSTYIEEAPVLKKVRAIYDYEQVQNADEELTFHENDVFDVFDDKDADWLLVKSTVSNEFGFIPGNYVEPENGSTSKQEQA

Boi1, P38041 = target: T6, Boi1, P38041; details: median of control spots 1162
T6 sequence (P38041 1-86, looked up): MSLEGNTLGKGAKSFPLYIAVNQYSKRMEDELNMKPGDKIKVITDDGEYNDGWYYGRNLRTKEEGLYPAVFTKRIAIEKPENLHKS

Nbp2, Q12163 = target: T7, Nbp2, Q12163; details: median of control spots 357
T7 sequence (Q12163 103-180, looked up): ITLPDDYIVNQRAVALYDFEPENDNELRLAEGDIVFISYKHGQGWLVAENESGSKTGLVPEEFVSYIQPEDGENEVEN

Hof1, Q05080 = target: T8, Hof1, Q05080; details: median of control spots 4086
T8 sequence (Q05080 590-669, looked up): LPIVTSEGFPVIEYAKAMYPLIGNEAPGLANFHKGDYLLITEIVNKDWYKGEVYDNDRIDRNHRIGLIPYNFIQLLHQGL

Pex13, P80667 = target: T9, Pex13, P80667; details: median of control spots 1341
T9 sequence (P80667 295-386, looked up): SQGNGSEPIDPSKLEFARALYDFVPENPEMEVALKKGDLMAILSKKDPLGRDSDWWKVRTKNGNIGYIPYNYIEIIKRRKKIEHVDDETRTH

Abp1, P15891 = target: T10, Abp1, P15891; details: median of control spots 935
T10 sequence (P15891 535-592, looked up): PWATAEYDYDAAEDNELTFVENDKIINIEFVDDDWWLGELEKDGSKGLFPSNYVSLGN

Bzz1-1, P38822 = target: T11, Bzz1-1, P38822; details: median of control spots 4446
T11 sequence (P38822 478-572, looked up): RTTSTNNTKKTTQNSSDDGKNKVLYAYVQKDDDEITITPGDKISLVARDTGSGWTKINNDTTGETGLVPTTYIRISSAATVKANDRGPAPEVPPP

Rvs167, P39743 = details: median of control spots 2707
Hse1, P38753 = target: T12, Hse1, P38753; details: median of control spots 1727
T12 sequence (P38753 208-285, looked up): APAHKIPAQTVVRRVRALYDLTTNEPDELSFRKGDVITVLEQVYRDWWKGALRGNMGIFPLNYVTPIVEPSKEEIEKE

Boi2, P39969 = target: T13, Boi2, P39969; details: median of control spots 1161
T13 sequence (P39969 32-116, looked up): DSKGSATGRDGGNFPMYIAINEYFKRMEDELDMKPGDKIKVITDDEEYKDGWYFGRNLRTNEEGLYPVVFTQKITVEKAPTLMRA

Bzz1-2, P38822 = target: T14, Bzz1-2, P38822; details: median of control spots 4538
T14 sequence (P38822 568-633, looked up): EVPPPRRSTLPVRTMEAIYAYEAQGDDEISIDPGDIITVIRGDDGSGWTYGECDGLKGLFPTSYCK

Fus1, P11710 = target: T15, Fus1, P11710; details: median of control spots 1200
T15 sequence (P11710 432-512, looked up): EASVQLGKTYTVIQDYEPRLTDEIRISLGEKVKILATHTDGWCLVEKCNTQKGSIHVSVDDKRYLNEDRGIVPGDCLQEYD

Myo5, Q04439 = target: T16, Myo5, Q04439; details: median of control spots 471
T16 sequence (Q04439 1072-1160, looked up): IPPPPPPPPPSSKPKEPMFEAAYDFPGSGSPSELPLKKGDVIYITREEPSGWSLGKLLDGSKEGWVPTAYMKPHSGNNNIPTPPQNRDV

Lsb4, P32793 = target: T17, Lsb4, P32793; details: median of control spots 397
T17 sequence (P32793 402-468, looked up): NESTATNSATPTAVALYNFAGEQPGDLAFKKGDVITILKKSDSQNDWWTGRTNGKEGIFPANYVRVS

Pin3, Q06449 = target: T18, Pin3, Q06449; details: median of control spots 2171
T18 sequence (Q06449 53-122, looked up): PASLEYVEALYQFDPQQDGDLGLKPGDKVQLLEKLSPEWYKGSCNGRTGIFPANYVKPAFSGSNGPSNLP

Bbc1, P47068 = target: T19, Bbc1, P47068; details: median of control spots 796
T19 sequence (P47068 1-78, looked up): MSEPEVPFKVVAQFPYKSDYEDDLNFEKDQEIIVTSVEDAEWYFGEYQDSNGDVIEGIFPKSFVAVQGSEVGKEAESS

Sho1, P40073 = details: median of control spots 1148
Sla1-3, P32790 = target: T20, Sla1-3, P32790; details: median of control spots 5475
T20 sequence (P32790 344-424, looked up): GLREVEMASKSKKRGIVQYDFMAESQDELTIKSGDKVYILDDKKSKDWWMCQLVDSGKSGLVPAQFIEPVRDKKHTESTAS

Bem1-1, P29366 = details: median of control spots 4282
Bud14, P27637 = target: T21, Bud14, P27637; details: median of control spots 956
T21 sequence (P27637 247-328, looked up): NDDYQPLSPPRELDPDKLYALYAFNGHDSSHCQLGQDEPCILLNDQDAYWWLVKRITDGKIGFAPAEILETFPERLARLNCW

Bem1-1, P29366, sequence (P29366 55-141): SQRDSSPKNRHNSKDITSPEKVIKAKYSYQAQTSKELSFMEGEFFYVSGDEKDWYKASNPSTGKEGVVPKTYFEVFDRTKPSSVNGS
Bem1-2, P29366, sequence (P29366 139-227): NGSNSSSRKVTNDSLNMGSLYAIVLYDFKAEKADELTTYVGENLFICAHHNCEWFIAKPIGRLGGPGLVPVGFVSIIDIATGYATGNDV
Sho1, P40073, sequence (P40073 287-367): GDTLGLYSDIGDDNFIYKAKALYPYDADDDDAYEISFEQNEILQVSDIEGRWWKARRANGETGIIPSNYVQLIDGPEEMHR
Rvs167, P39743, sequence (P39743 419-482): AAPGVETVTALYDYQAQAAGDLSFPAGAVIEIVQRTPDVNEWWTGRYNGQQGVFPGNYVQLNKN

Binder	SPOT intensity (GST)	SPOT intensity (Lsb3, P43603)	SPOT intensity (Lsb1, P53281)	SPOT intensity (Bem1-2, P29366)	SPOT intensity (Myo3, P36006)	SPOT intensity (Cyk3, Q07533)	SPOT intensity (Cdc25, P04821)	SPOT intensity (Sla1-2, P32790)	SPOT intensity (Boi1, P38041)	SPOT intensity (Nbp2, Q12163)	SPOT intensity (Hof1, Q05080)	SPOT intensity (Pex13, P80667)	SPOT intensity (Abp1, P15891)	SPOT intensity (Bzz1-1, P38822)	SPOT intensity (Rvs167, P39743)	SPOT intensity (Hse1, P38753)	SPOT intensity (Boi2, P39969)	SPOT intensity (Bzz1-2, P38822)	SPOT intensity (Fus1, P11710)	SPOT intensity (Myo5, Q04439)	other results
VPPVPLPFGIPPFPM	0	4	6	2	341	2	8	1	0	1	84	129	25	2	0	0	1	0	0	207	SPOT intensity (Lsb4, P32793): 16; SPOT intensity (Pin3, Q06449): 63; SPOT intensity (Bbc1, P47068): 3; SPOT intensity (Sho1, P40073): 6; SPOT intensity (Sla1-3, P32790): 0; SPOT intensity (Bem1-1, P29366): 0; SPOT intensity (Bud14, P27637): 2
ISPPASPPPEFDFSK	0	0	0	0	233	1	0	0	0	0	0	0	0	0	0	0	0	0	0	91	SPOT intensity (Lsb4, P32793): 0; SPOT intensity (Pin3, Q06449): 0; SPOT intensity (Bbc1, P47068): 0; SPOT intensity (Sho1, P40073): 0; SPOT intensity (Sla1-3, P32790): 0; SPOT intensity (Bem1-1, P29366): 0; SPOT intensity (Bud14, P27637): 0
PSPSSSPPPIPKTAN	1	0	0	0	413	0	1	0	1	0	0	0	0	1	0	0	1	3	0	300	SPOT intensity (Lsb4, P32793): 0; SPOT intensity (Pin3, Q06449): 0; SPOT intensity (Bbc1, P47068): 0; SPOT intensity (Sho1, P40073): 0; SPOT intensity (Sla1-3, P32790): 0; SPOT intensity (Bem1-1, P29366): 1; SPOT intensity (Bud14, P27637): 0
PIVPSSPAPPLPLSG	0	0	0	0	399	0	0	0	0	0	0	0	0	1	0	0	0	0	1	434	SPOT intensity (Lsb4, P32793): 0; SPOT intensity (Pin3, Q06449): 0; SPOT intensity (Bbc1, P47068): 0; SPOT intensity (Sho1, P40073): 0; SPOT intensity (Sla1-3, P32790): 0; SPOT intensity (Bem1-1, P29366): 0; SPOT intensity (Bud14, P27637): 0
